We go through 1 molecule from patent US20170119790A1, “Agents, Uses and Methods” (CYTOGUIDE A/S, priority 2009, published 2017).

The target of experiment [1] is T1, CHO cells expressing CD163 (Homo sapiens, UniProt Q86VB7).
T1 construct: Stably transfected Chinese hamster ovary (CHO) cells expressing the full-length human CD163; expressed in transfected cells
The experiment can be described thus: CD163 antibody binding and uptake in CHO cells expressing CD163 (confocal microscopy). The experiment is classed as cell-based. As to conditions: 0 or 30 minutes, FIG. 7. As for the experimental part: Monocytes were isolated from PBMC by negative selection using magnetic beads from Dynal (Dynabeads® MyPure™ Monocyte Kit 2; Invitrogen A/S, Taastrup, Denmark) according to instructions provided by the manufacturer. Monocyte preparations were more than 95% (CD14^+) pure determined by flow cytometry. The isolated cells were washed twice with phosphate-buffered saline. Monocyte-derived macrophages (MDMs) were prepared by cell culture of monocytes (approximately 1×10^7 cells) for 4 days in 5% CO2 and 37° C. in RPMI 1640 media (RPMI 1640+25 mM HEPES+I-glutamine) (Invitrogen Corporation, Carlsbad, Calif., USA) with 20% FCS containing 100 ng/ml of M-CSF. MDMs were then detached from the flask by incubation with cell dissociation buffer (Invitrogen A/S, Taastrup, Denmark) for 30 minutes at 4 °C, then flushed, and scraped. […]
(§1) MDMs or CHO cells were washed with 4° C. cold D-PBS, pH 7.4, containing 1% BSA in Lab-Tek™ Chamber Slides (Thermo Fisher Scientific, Roskilde, Denmark). […] Fluorescence was visualized using a Zeiss Axiovert 200M microscope (Carl Zeiss GmbH, Jena, Germany) with an ×100 oil-immersion objective. […] Alternatively, immunostained cells were analyzed by confocal immunofluorescence microscopy using a Zeiss LSM-510 confocal microscope (Carl Zeiss GmbH, Jena, Germany). […]

Experiment [2] addresses T2, CD163 receptor on surface of human macrophages (Homo sapiens, UniProt Q86VB7).
T2 construct: Freshly drawn peripheral whole blood samples or PBMC; endogenous in cells; host or cells: human peripheral blood monocytes, blood dendritic cells, monocyte-derived macrophages (healthy donors, buffy coats)
The experiment can be described thus: Cellular binding and uptake of fluorescently labeled CD163 antibodies in monocyte-derived macrophages. The format is cell-based. On the procedure:
Monocytes were isolated from PBMC by negative selection using magnetic beads from Dynal (Dynabeads® MyPure™ Monocyte Kit 2; Invitrogen A/S, Taastrup, Denmark) according to instructions provided by the manufacturer. Monocyte preparations were more than 95% (CD14^+) pure determined by flow cytometry. The isolated cells were washed twice with phosphate-buffered saline. Monocyte-derived macrophages (MDMs) were prepared by cell culture of monocytes (approximately 1×10^7 cells) for 4 days in 5% CO2 and 37° C. in RPMI 1640 media (RPMI 1640+25 mM HEPES+I-glutamine) (Invitrogen Corporation, Carlsbad, Calif., USA) with 20% FCS containing 100 ng/ml of M-CSF. MDMs were then detached from the flask by incubation with cell dissociation buffer (Invitrogen A/S, Taastrup, Denmark) for 30 minutes at 4 °C, then flushed, and scraped. The cells were then cultured for 24 hours in RPMI 1640 media (RPMI 1640+25 mM HEPES+I-glutamine) (Invitrogen Corporation, Carlsbad, Calif., USA) supplemented with 20% FCS containing 100 ng/ml of M-CSF at 37° C. in 95% air and 5% CO2 in Lab-Tek™ Chamber Slides (Thermo Fisher Scientific, Roskilde, Denmark). 200 nM dexamethasone (Merck KGaA, Darmstadt, Germany) was added during culture to increase CD163 expression. Stably transfected Chinese hamster ovary (CHO) cells expressing the full-length human CD163, as described above, were cultured in serum-free CHO medium (HyQ-CCM, HyClone, Logan, Utah) containing 300 μg/ml Hygromycin B, as previously described (2).
as §1, with “Denmark). The cells were then incubated with 10 μg/ml different clones of anti-CD163 for one hour at 4° C. and then washed three times with D-PBS, pH 7.4, with 1% BSA.” for “Denmark).”

Experiment [3] has as its target T3, mouse CD163 1-5 wt (Mus musculus, UniProt Q2VLH6).
T3 construct: CD163 domain 1-5 was used for expression of mouse CD163 domain 1-5/V5/His; made in house; host or cells: Lenti-X 293T, transient; captured from supernatant on Ni-NTA
The experiment can be described thus: Western blotting of mouse CD163 and knock in mutant. The format is binding. On the procedure:
The mouse CD163 1-5 and the mouse CD163 domain 1 mutant were expressed transient in Lenti-X 293T cells as follows: 1.5 μg of the DNA was diluted in OptiCHOPro SFM (8 mM L-glutamine) to a total volume of 50 μl The DNA was gently mixed with 50 μl of OptiCHOPro SFM containing 1.5 μl Freestyle MAX transfection reagent (Invitrogen, Taastrup, Denmark). After 10 min of incubation at room temperature the complexes were added to 1×10^6 cells in 1 ml. Three days later, the cell supernatants were harvested by centrifugation.
Tris pH 8 buffer, and cell culture supernatants were added 60 μl of Ni-NTA His-bind resin slurry. After 1 hour shaking at 4° C. the supernatants were aspired and each of the purifications were eluted with 90 μl 50 mM Tris pH 8, 25 mM EDTA buffer.
90 μl of each of the eluates were added 30 μl of 4×LDS sample buffer. 20 μl samples of each supernatant and 8 μl SeeBlue plus2 prestained marker were loaded on NuPage 4-12% Bis-Tris-Gels (Invitrogen, Taastrup, Denmark) and the SDS-PAGEs were run with MOPS running buffer according to instructions of the manufacturer (200 V constant for 50 min). Blotting to PVDF membranes (Invitrogen, Taastrup, Denmark) was done on an iBLOT device according to instructions of the manufacturer. After blotting the membranes were washed briefly in 1×PBS 0.1% Tween and blocked for 30 min in 1×PBS 2% Tween at room temperature with shaking. […]

For experiment [4], the system named is non-transfected Flp-In CHO cells. The experiment can be described thus: Cellular binding and uptake of 125I-labeled anti-CD163, control cells. The experiment is classed as cell-based, Chinese hamster. As to conditions: 125I-labelled mAb. From the text:
Endocytosis of ^125I-labeled anti-CD163 was investigated in CD163 transfected Flp-In Chinese hamster ovary (CHO) cells and mock-transfected Flp-In as described (Madsen, M., Moller, H. J., Nielsen, M. J., Jacobsen, C., Graversen, J. H., van den Berg, T. and Moestrup, S. K. (2004) Molecular characterization of the haptoglobin.hemoglobin receptor CD163. Ligand binding properties of the scavenger receptor cysteine-rich domain region. J. Biol. Chem., 279, 51561-51567.)

T2 sequence (Q86VB7 42-1156): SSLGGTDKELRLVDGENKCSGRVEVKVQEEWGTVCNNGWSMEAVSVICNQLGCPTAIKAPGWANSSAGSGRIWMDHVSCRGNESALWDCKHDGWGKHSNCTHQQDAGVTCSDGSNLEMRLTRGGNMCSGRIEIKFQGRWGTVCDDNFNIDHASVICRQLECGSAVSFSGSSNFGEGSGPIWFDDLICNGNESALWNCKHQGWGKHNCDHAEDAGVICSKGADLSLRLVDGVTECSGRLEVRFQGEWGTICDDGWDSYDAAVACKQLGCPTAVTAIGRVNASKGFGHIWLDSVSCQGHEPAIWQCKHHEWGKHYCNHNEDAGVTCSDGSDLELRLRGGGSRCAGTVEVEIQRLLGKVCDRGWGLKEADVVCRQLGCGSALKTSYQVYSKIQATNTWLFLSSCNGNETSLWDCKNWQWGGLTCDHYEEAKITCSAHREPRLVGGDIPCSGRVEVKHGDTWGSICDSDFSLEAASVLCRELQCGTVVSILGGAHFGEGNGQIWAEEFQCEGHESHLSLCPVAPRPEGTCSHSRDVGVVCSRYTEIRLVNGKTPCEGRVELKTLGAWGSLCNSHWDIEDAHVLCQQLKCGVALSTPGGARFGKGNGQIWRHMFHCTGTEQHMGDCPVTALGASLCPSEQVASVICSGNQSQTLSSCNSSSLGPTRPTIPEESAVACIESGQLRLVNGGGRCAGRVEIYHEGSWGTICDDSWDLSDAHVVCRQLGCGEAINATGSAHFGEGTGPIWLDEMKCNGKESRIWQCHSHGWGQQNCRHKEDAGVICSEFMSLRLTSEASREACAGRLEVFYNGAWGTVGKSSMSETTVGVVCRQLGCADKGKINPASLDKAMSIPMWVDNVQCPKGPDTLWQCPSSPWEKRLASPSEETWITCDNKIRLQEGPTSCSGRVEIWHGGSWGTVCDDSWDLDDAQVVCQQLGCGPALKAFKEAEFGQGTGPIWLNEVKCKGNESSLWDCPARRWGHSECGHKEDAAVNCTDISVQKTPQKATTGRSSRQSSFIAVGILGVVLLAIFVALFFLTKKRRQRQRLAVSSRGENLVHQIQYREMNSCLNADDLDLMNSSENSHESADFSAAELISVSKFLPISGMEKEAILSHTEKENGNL
T1 sequence (Q86VB7 42-1156): as above
T3 sequence (Q2VLH6 with tags, fused parts or gaps): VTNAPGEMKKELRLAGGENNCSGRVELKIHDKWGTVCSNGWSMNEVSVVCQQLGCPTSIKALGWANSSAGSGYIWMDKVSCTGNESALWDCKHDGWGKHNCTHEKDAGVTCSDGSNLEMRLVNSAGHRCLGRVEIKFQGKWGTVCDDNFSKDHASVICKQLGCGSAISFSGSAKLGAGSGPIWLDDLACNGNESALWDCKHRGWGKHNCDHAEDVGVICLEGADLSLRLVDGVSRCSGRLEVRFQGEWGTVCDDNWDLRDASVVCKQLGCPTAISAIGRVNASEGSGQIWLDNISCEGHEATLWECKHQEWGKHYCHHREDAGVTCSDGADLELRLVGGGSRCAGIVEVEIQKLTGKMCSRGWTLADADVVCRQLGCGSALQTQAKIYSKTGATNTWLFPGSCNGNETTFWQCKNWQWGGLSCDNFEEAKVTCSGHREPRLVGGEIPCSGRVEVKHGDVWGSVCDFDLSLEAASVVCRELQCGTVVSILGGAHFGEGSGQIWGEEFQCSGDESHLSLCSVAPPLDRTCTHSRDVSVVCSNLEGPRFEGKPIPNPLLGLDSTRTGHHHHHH

B1: MAC2-158: anti-human CD163 murine mAb, binds SRCR domain 1, IQ Products; VH SEQ ID NO: 1, VL SEQ ID NO: 2 (antibody, V domains shown)
VH: DVQLQESGPGLVKPSQSLSLTCTVTGYSITSDYAWNWIRQFPGNKLEWMGYITYSGITNYNPSLKSQISITRDTSKNQFFLQLNSVTTEDTATYYCVSGTYYFDYWGQGTTLTVSS
VL: SVVMTQTPKSLLISIGDRVTITCKASQSVSSDVAWFQQKPGQSPKPLIYYASNRYTGVPDRFTGSGYGTDFTFTISSVQAEDLAVYFCGQDYTSPRTFGGGTKLEIKRA
modifications: Mac2-158 VH; Mac2-158 VL
Consider B1, for which the binding and uptake result is “best binding and uptake” in experiment [1]; “best binding and uptake” in experiment [2] (0 or 30 minutes, FIG. 6). In addition, the “intensity of intracellular staining” value in experiment [2] (after incubation for 30 min) is “most prominent”. Moreover, the cell surface staining entry in experiment [2] (immunofluorescence, 0 min, macrophages stimulated with 200 nM dexamethasone) is listed as “pronounced cell surface staining”. Besides, the “binding in western blot” value in experiment [3] is recorded as “did not bind”. Further, the “percentage of cell-associated radioactivity reached” value in experiment [4] was found to be 1.37%.
